Patent US20090060908A1

Target: CD16 (FcγRIII) on human peripheral blood effector cells (human) (UniProt P08637)
Test: cell-based or functional assay

Sequence of CD16 (FcγRIII) on human peripheral blood effector cells (human) (P08637 17-254): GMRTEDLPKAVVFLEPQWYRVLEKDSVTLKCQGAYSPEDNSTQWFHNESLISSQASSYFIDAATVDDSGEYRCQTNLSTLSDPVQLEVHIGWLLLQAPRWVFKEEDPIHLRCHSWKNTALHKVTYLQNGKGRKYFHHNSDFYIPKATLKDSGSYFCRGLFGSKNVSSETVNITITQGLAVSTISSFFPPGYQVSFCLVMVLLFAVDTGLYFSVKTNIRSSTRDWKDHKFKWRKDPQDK

**Q.** How did the % lysis in ADCC by 1 µg/ml 2A10 (fucosylated or defucosylated) with 5 µg/ml anti-CD16 antibody 3G8 turn out when anti-CD16 antibody 3G8 was run?
**A.** < 5%

**Q.** What about the % lysis in ADCC by 1 µg/ml 7F12 (CHO-derived or chicken-derived) with 5 µg/ml anti-CD16 antibody 3G8 of the same substance?
**A.** 4%
